From PMC4140661 come the findings set out here.

This experiment deals with Pea2p-L409-ProA (pea2-M409L; S288C-encoded Pea2p variant in the Σ1278b background) (S. cerevisiae (S288C allele recreated in strain Σ1278b)) (UniProt P40091). The experiment in a line: co-IP; IgG pull-down with Pea2p-ProA as bait from lysates of Σ1278b cells; HA-Spa2p from a copper-inducible plasmid; lysis buffer 50 mM Tris-HCl pH 7.5, 150 mM NaCl, 2 mM EDTA, 0.5% Triton X-100; 2 hr at 4°C; Western blot (anti-HA, anti-Protein A); levels normalized against total cell lysate. In general terms: In western blotting, separated proteins are transferred to a membrane and probed.
Chain of UniProt P40091 (P40091 whole entry, stated change not applied): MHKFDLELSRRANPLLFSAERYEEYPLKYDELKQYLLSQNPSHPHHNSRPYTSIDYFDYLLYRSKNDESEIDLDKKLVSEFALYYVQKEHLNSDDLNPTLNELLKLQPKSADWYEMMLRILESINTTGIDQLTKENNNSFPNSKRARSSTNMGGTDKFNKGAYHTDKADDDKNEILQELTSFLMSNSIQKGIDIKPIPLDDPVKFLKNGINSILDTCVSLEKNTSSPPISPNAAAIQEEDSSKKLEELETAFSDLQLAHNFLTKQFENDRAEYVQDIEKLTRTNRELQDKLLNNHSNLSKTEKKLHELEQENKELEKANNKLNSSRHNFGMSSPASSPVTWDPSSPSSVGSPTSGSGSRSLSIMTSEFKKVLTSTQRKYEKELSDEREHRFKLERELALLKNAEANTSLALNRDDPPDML

Chain of HA-Spa2p (P23201 whole entry): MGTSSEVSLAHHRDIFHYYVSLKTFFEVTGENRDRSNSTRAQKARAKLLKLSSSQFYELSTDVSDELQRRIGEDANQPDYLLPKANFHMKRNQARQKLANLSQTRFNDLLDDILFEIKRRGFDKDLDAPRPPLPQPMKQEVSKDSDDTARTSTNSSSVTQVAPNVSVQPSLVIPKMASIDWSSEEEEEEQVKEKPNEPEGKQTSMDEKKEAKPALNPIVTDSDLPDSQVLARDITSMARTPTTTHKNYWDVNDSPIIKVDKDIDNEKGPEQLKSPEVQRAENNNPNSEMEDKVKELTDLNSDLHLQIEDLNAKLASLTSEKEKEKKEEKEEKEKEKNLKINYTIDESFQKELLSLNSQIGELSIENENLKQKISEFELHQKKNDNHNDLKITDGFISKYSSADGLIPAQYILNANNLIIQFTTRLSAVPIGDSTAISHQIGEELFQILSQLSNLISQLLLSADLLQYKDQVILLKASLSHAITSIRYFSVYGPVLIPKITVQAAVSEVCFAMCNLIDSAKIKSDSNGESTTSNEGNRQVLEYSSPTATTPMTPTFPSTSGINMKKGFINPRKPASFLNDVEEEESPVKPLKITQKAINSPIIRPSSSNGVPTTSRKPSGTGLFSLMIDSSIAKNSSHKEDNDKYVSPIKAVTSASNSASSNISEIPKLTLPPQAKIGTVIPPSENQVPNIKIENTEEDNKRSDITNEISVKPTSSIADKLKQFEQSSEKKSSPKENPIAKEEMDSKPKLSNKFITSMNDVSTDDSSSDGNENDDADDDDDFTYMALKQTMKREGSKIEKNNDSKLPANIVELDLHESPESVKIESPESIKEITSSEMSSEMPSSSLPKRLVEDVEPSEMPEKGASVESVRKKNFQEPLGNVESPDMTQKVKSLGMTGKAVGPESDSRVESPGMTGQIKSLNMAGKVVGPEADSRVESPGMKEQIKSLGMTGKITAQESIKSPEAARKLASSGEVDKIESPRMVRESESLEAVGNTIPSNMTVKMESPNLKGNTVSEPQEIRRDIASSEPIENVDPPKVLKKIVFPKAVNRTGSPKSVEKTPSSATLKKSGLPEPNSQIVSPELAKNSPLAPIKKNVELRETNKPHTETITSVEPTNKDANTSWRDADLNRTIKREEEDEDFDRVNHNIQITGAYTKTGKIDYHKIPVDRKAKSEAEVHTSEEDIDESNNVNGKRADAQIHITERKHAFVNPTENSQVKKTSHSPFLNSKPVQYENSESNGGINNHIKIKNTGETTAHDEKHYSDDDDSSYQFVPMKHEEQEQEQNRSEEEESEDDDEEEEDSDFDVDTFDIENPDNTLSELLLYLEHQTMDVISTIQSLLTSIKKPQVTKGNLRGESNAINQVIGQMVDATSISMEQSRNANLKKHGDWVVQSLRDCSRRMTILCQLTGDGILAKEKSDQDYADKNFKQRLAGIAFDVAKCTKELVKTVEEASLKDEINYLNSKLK

Substance “HA-Spa2p (from UniProt P23201 1-1466) (natural protein)” displayed an amount of Spa2p recovered relative to Pea2p-M409 of 60%.
